# Experimental data: patent US20180155451A1 (published 2018)
# B1: GpH7-B3 variant S298_11K/GpL16-k0 (antibody, human IgG1, kappa)
# heavy: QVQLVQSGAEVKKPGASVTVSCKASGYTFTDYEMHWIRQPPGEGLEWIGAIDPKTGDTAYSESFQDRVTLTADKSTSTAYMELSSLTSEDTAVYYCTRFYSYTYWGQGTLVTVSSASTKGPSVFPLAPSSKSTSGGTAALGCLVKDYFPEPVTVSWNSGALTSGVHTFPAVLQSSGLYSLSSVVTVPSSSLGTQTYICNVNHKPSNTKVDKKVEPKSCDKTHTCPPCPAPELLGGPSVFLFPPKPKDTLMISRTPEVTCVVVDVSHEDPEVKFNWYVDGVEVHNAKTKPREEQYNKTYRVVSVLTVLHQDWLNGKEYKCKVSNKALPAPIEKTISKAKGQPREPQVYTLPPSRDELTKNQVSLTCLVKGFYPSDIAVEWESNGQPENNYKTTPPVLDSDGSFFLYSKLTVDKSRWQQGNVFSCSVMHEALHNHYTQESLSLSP
# light: DIVMTQSPLSLPVTPGEPASISCQASESLVHSNRNTYLHWYLQKPGQSPQLLIYKVSNRFSGVPDRFSGSGSGTDFTLKISRVEAEDVGVYYCSQNTHVPPTFGQGTKVEIERTVAAPSVFIFPPSDEQLKSGTASVVCLLNNFYPREAKVQWKVDNALQSGNSQESVTEQDSKDSTYSLSSTLTLSKADYEKHKVYACEVTHQGLSSPVTKSFNRGEC
# notes: mutation in both H chains; also called Ho Ab S298_11K; S298K
# B2: GpH7-B3 variant S267_08L/GpL16-k0 (antibody, human IgG1, kappa)
# heavy: not shown
# light: B1 light
# notes: mutation in both H chains; also called Ho Ab S267_08L; S267L
# B3: GpH7-B3 variant S298_14T/GpL16-k0 (antibody, human IgG1, kappa)
# heavy: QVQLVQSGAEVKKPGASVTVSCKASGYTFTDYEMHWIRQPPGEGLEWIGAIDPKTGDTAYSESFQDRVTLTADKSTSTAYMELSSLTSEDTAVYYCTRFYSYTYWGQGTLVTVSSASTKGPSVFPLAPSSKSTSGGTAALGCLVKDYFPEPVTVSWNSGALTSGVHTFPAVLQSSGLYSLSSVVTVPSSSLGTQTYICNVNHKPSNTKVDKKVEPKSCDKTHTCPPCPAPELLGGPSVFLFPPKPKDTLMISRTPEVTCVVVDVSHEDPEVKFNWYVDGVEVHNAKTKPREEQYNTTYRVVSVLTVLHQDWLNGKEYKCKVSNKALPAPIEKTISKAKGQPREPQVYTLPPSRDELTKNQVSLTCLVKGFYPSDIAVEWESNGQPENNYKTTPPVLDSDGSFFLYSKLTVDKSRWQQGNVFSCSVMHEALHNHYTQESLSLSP
# light: B1 light
# notes: mutation in both H chains; also called Ho Ab S298_14T; S298T
# B4: GpH7-B3 variant S267_01G/GpL16-k0 (antibody, human IgG1, kappa)
# heavy: not shown
# light: B1 light
# notes: mutation in both H chains; also called Ho Ab S267_01G; S267G
# B5: GpH7-B3 variant S298_18N/GpL16-k0 (antibody, human IgG1, kappa)
# heavy: not shown
# light: B1 light
# notes: mutation in both H chains; also called Ho Ab S298_18N; S298N
# B6: GpH7-B3 variant T335_09D/GpL16-k0 (antibody, human IgG1, kappa)
# heavy: not shown
# light: B1 light
# notes: mutation in both H chains; also called Ho Ab T335_09D; T335D
# B7: GpH7-B3 variant S337_20W/GpL16-k0 (antibody, human IgG1, kappa)
# heavy: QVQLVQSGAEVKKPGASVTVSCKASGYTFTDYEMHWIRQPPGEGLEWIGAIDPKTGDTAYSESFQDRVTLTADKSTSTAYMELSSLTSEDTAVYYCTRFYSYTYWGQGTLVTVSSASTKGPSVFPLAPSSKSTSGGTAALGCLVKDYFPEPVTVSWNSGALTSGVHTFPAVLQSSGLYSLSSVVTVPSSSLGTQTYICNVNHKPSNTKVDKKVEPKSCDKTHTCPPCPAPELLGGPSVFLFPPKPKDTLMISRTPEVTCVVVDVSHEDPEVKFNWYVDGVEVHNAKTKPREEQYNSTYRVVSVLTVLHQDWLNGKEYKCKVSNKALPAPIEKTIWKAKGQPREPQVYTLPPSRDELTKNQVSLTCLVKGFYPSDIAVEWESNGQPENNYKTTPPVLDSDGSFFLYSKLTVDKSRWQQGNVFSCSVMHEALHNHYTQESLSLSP
# light: B1 light
# notes: mutation in both H chains; also called Ho Ab S337_20W; S337W
# B8: GpH7-B3 variant S337_19Q/GpL16-k0 (antibody, human IgG1, kappa)
# heavy: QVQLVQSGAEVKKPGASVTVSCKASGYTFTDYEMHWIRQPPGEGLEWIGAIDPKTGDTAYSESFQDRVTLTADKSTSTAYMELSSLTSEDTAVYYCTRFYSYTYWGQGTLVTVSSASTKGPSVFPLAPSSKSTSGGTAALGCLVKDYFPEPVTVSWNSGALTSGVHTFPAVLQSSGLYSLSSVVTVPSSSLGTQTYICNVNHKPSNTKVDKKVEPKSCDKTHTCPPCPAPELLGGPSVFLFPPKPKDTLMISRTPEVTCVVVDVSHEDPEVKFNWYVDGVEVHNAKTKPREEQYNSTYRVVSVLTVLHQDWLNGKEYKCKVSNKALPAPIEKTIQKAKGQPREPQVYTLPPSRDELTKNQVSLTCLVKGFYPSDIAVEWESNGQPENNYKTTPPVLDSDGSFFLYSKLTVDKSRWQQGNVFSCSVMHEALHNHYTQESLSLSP
# light: B1 light
# notes: mutation in both H chains; also called Ho Ab S337_19Q; S337Q
# B9: GpH7-B3 variant S267_16H/GpL16-k0 (antibody, human IgG1, kappa)
# heavy: not shown
# light: B1 light
# notes: mutation in both H chains; also called Ho Ab S267_16H; S267H
# B10: GpH7-B3 variant S298_02A/GpL16-k0 (antibody, human IgG1, kappa)
# heavy: not shown
# light: B1 light
# notes: mutation in both H chains; also called Ho Ab S298_02A; S298A
# B11: GpH7-B3 variant S337_08L/GpL16-k0 (antibody, human IgG1, kappa)
# heavy: not shown
# light: B1 light
# notes: mutation in both H chains; also called Ho Ab S337_08L; S337L
# B12: GpH7-B3 variant S337_07I/GpL16-k0 (antibody, human IgG1, kappa)
# heavy: not shown
# light: B1 light
# notes: mutation in both H chains; also called Ho Ab S337_07I; S337I
# B13: GpH7-B3 variant S298_03V/GpL16-k0 (antibody, human IgG1, kappa)
# heavy: not shown
# light: B1 light
# notes: mutation in both H chains; also called Ho Ab S298_03V; S298V
# B14: GpH7-B3 variant S298_19Q/GpL16-k0 (antibody, human IgG1, kappa)
# heavy: not shown
# light: B1 light
# notes: mutation in both H chains; also called Ho Ab S298_19Q; S298Q
# B15: GpH7-B3 variant S267_03V/GpL16-k0 (antibody, human IgG1, kappa)
# heavy: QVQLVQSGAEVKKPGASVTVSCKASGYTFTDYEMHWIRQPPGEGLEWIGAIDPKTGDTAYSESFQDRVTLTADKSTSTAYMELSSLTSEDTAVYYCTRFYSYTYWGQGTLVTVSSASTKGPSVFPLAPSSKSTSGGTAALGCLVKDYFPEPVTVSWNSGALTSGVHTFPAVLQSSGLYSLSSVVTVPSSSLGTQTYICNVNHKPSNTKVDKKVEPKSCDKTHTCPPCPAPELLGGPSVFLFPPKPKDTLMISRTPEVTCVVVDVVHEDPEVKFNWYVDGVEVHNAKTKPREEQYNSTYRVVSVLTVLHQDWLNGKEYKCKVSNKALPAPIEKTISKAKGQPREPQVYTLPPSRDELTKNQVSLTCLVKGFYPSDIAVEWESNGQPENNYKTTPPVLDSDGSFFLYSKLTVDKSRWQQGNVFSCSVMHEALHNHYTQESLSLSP
# light: B1 light
# notes: mutation in both H chains; also called Ho Ab S267_03V; S267V
# B16: GpH7-B3 variant T335_12R/GpL16-k0 (antibody, human IgG1, kappa)
# heavy: not shown
# light: B1 light
# notes: mutation in both H chains; also called Ho Ab T335_12R; T335R
# B17: GpH7-B3 variant S298_20W/GpL16-k0 (antibody, human IgG1, kappa)
# heavy: not shown
# light: B1 light
# notes: mutation in both H chains; also called Ho Ab S298_20W; S298W
# B18: GpH7-B3 variant S324_12R/GpL16-k0 (antibody, human IgG1, kappa)
# heavy: not shown
# light: B1 light
# notes: mutation in both H chains; also called Ho Ab S324_12R; S324R
# B19: GpH7-B3 variant S239_14T/GpL16-k0 (antibody, human IgG1, kappa)
# heavy: not shown
# light: B1 light
# notes: mutation in both H chains; also called Ho Ab S239_14T; S239T
# B20: GpH7-B3 variant T335_11K/GpL16-k0 (antibody, human IgG1, kappa)
# heavy: not shown
# light: B1 light
# notes: mutation in both H chains; also called Ho Ab T335_11K; T335K
# B21: GpH7-B3 variant T335_07I/GpL16-k0 (antibody, human IgG1, kappa)
# heavy: not shown
# light: B1 light
# notes: mutation in both H chains; also called Ho Ab T335_07I; T335I
# B22: GpH7-B3 variant S337_09D/GpL16-k0 (antibody, human IgG1, kappa)
# heavy: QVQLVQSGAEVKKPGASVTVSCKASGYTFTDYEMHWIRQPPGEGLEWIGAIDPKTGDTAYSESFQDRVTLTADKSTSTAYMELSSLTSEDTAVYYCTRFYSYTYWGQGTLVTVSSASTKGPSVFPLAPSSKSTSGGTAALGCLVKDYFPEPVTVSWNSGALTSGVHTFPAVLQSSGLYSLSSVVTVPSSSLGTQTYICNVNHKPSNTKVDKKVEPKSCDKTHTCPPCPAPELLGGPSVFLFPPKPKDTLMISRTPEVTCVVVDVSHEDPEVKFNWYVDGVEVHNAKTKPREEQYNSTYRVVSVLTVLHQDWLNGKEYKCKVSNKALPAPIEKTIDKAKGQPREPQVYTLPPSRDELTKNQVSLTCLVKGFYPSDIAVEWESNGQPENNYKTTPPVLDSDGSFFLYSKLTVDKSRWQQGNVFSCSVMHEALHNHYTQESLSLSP
# light: B1 light
# notes: mutation in both H chains; also called Ho Ab S337_09D; S337D
# B23: GpH7-B3 variant S298_16H/GpL16-k0 (antibody, human IgG1, kappa)
# heavy: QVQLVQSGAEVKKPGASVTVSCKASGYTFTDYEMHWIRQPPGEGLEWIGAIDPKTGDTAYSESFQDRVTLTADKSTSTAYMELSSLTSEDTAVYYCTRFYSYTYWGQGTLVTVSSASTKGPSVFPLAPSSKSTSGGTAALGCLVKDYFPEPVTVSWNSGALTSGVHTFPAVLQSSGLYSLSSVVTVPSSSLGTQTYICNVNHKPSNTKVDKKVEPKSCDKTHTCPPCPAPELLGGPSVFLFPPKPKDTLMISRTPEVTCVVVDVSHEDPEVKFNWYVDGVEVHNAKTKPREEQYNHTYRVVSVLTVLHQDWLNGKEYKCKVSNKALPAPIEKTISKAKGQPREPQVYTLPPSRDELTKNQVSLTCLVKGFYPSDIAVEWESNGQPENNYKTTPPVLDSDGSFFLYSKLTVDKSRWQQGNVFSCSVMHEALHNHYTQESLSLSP
# light: B1 light
# notes: mutation in both H chains; also called Ho Ab S298_16H; S298H
# B24: GpH7-B3 variant S324_14T/GpL16-k0 (antibody, human IgG1, kappa)
# heavy: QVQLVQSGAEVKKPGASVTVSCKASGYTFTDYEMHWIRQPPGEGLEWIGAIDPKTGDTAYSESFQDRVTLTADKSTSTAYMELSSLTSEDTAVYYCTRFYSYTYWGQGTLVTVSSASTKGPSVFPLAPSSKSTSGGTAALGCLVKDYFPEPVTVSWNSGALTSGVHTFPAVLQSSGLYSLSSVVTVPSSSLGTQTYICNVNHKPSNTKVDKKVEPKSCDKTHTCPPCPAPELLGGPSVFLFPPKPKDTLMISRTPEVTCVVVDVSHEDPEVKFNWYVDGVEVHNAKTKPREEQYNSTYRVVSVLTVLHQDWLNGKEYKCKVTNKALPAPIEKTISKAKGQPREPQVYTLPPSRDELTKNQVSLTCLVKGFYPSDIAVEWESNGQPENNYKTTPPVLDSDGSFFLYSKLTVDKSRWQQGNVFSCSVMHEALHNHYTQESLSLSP
# light: B1 light
# notes: mutation in both H chains; also called Ho Ab S324_14T; S324T
# B25: GpH7-B3 variant S337_01G/GpL16-k0 (antibody, human IgG1, kappa)
# heavy: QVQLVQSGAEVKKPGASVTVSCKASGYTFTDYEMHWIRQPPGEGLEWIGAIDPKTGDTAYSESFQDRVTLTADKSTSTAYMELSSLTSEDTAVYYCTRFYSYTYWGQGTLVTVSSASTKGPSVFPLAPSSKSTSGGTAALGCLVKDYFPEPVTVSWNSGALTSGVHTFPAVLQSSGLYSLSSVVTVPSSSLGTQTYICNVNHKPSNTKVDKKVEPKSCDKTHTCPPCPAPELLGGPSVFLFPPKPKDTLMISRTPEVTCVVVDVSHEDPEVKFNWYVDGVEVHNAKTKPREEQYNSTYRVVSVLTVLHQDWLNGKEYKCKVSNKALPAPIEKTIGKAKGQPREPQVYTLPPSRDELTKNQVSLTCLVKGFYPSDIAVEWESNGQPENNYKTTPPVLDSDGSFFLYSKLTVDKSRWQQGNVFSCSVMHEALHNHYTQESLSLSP
# light: B1 light
# notes: mutation in both H chains; also called Ho Ab S337_01G; S337G
# B26: GpH7-B3 variant S324_15Y/GpL16-k0 (antibody, human IgG1, kappa)
# heavy: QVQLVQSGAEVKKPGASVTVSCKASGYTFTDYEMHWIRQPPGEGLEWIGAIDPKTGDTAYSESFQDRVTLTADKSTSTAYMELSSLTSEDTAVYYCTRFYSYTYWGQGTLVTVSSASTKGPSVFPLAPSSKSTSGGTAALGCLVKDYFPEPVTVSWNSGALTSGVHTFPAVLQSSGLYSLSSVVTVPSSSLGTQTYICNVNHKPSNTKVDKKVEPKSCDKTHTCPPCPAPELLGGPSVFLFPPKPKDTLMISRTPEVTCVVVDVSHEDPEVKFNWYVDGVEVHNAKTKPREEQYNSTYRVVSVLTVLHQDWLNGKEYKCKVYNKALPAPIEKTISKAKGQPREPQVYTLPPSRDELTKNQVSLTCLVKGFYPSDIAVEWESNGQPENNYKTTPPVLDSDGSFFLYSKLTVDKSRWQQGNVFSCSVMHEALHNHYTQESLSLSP
# light: B1 light
# notes: mutation in both H chains; also called Ho Ab S324_15Y; S324Y
# B27: GpH7-B3 variant S324_11K/GpL16-k0 (antibody, human IgG1, kappa)
# heavy: not shown
# light: B1 light
# notes: mutation in both H chains; also called Ho Ab S324_11K; S324K
# B28: GpH7-B3 variant S298_15Y/GpL16-k0 (antibody, human IgG1, kappa)
# heavy: not shown
# light: B1 light
# notes: mutation in both H chains; also called Ho Ab S298_15Y; S298Y
# B29: GpH7-B3 variant S337_04F/GpL16-k0 (antibody, human IgG1, kappa)
# heavy: not shown
# light: B1 light
# notes: mutation in both H chains; also called Ho Ab S337_04F; S337F
# B30: GpH7-B3 variant S324_08L/GpL16-k0 (antibody, human IgG1, kappa)
# heavy: not shown
# light: B1 light
# notes: mutation in both H chains; also called Ho Ab S324_08L; S324L
# Molecular target: T1, FcγRIa extracellular domain with C-terminal His tag (human, UniProt P12314 16-292)
# T1 construct: extracellular domain; also called FcgRI; CD64; not shown: His tag at the C terminus
# Assay: SPR Biacore, relative FcγRIa binding vs GpH7-B3/GpL16-k0
# T1 sequence (P12314 16-292): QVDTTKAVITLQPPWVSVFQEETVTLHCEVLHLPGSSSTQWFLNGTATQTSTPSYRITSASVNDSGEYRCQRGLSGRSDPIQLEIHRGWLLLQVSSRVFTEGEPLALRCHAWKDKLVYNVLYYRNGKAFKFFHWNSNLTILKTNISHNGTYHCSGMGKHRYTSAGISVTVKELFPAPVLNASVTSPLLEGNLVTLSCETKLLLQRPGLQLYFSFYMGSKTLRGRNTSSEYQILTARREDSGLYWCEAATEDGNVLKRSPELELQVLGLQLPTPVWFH
row,Binder,Ho/Con_1a
1,B1,90.4 % of HoCon Ab (=100)
2,B2,99.9 % of HoCon Ab (=100)
3,B3,106 % of HoCon Ab (=100)
4,B4,102 % of HoCon Ab (=100)
5,B5,104 % of HoCon Ab (=100)
6,B6,107 % of HoCon Ab (=100)
7,B7,104 % of HoCon Ab (=100)
8,B8,105 % of HoCon Ab (=100)
9,B9,98.2 % of HoCon Ab (=100)
10,B10,106 % of HoCon Ab (=100)
11,B11,105 % of HoCon Ab (=100)
12,B12,105 % of HoCon Ab (=100)
13,B13,106 % of HoCon Ab (=100)
14,B14,105 % of HoCon Ab (=100)
15,B15,102 % of HoCon Ab (=100)
16,B16,106 % of HoCon Ab (=100)
17,B17,71.5 % of HoCon Ab (=100)
18,B18,101 % of HoCon Ab (=100)
19,B19,101 % of HoCon Ab (=100)
20,B20,103 % of HoCon Ab (=100)
21,B21,105 % of HoCon Ab (=100)
22,B22,106 % of HoCon Ab (=100)
23,B23,107 % of HoCon Ab (=100)
24,B24,112 % of HoCon Ab (=100)
25,B25,102 % of HoCon Ab (=100)
26,B26,112 % of HoCon Ab (=100)
27,B27,100 % of HoCon Ab (=100)
28,B28,103 % of HoCon Ab (=100)
29,B29,105 % of HoCon Ab (=100)
30,B30,103 % of HoCon Ab (=100)
